Target: the molecule itself
Assay: crystal structure

| Protein | binding result |
| --- | --- |
| MS2 coat protein Asn87Ser mutant (natural protein, bacteriophage MS2) ASNFTQFVLVDNGGTGDVTVAPSNFANGVAEWISSNSRSQAYKVTCSVRQSSAQNRKYTIKVEVPKVATQTVGGVELPVAAWRSYLSMELTIPIFATNSDCELIVKAMQGLLKDGNPIPSAIAANSGIY | binds |
| MS2 coat protein Asn87Ser, Glu89Lys double mutant (natural protein, bacteriophage MS2) ASNFTQFVLVDNGGTGDVTVAPSNFANGVAEWISSNSRSQAYKVTCSVRQSSAQNRKYTIKVEVPKVATQTVGGVELPVAAWRSYLSMKLTIPIFATNSDCELIVKAMQGLLKDGNPIPSAIAANSGIY | binds |

Reference: publication PMC7612262 (Structure (London, England : 1993), 2006)
